Experimental data from patent US20240417426A1.

Legend:
[1] = target: column ligand of the FLAG-Tag system (Prot)
[2] = target: column ligand of the Strep-Tag system (Prot)

Substance | Capacity [1] [mg/mL] | Kd [1] [nM] | Capacity [2] [mg/mL] | Kd [2] [nM]
FLAG-Tag (peptide) | 0.6 | 1 |  | 
Strep-Tag (peptide) |  |  | 6 | 1000
